Experimental data reported in patent US7312060.

How the values were obtained:
[1] = target: N- and C-terminally tagged APC protein (cell-free expressed, Example 45) (UniProt P25054)
[2] = test system: N- and C-terminally tagged MDM (cell-free expressed)
[3] = test system: N- and C-terminally tagged PKA (cell-free expressed)

UniProt P25054, sequence (P25054 1098-1696): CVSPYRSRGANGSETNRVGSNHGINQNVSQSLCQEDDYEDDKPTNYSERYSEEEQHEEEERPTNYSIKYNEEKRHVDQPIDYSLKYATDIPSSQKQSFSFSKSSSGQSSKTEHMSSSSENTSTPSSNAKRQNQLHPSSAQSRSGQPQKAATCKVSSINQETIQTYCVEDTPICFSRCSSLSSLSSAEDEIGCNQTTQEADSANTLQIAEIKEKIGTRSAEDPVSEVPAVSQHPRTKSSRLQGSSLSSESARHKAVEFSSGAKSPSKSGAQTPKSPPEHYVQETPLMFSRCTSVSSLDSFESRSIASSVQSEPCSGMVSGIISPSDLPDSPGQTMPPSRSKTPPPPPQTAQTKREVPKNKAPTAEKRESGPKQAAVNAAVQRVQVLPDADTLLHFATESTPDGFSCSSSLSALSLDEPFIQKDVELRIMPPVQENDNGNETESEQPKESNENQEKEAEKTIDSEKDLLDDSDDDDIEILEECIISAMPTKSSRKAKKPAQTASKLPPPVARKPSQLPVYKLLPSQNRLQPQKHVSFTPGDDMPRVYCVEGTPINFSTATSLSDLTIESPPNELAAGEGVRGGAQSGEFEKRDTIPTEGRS

**Q.** Caspase-3 was tested. Which “protease substrate degradation monitored by ELISA” value [1] did it give?
**A.** degraded ... in a time-dependent manner

**Q.** And the “protease substrate degradation monitored by ELISA” value [2]?
**A.** degraded ... in a time-dependent manner

**Q.** And the “protease substrate degradation monitored by ELISA” value [3]?
**A.** unaffected
